Experiments:
[1] = target: T1, human EpCAM on tumor cells (KATO-III, HT-29, MKN45, NCI-H1755) (human, UniProt P16422 24-314); test: flow cytometry, KATO-III cells (EpCAM+); PE-labelled goat anti-human detection; fluorescence intensity [PE] against concentration (nM); CD19-targeted negative control
T1 construct: endogenous EpCAM of human tumor cell lines; also called epithelial cell adhesion molecule
T1 sequence: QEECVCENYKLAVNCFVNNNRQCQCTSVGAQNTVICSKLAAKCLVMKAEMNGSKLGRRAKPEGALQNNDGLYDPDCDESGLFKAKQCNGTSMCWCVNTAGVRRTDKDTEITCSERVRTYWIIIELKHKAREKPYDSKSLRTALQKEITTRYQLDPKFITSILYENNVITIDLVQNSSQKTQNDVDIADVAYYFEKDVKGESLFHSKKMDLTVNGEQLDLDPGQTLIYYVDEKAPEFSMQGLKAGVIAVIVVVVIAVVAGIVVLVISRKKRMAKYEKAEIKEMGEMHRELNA

[2] = target: T2, human CD28 on CHO cells (CHO-k1 ATCC #CCL-61 modified to stably overexpress human CD28) (human, UniProt P10747 19-220); test: flow cytometry, CHO-k1 cells stably overexpressing human CD28; monovalent one-armed IgG from supernatant, PE-labelled goat anti-human detection; MFI (PE) against c [nM]
T2 construct: also called CHO-k1-huCD28 cells; hu CD28

[3] = target: T3, biotinylated monovalent EpCAM-Fc (human EpCAM ECD-Fc knob avi-his paired with Fc hole) (human, UniProt P01857 104-328 = IgG part, biotin on the avi tag (BirA co-expression)); test: SPR ProteOn XPR36 off-rate, biotinylated monovalent EpCAM-Fc on NLC chip
T3 construct: also called monovalent EpCAM-Fc construct; huEPCAM-Fc-knob (avi-His) + Fc hole (wt)

B1: CD19 (8B8-2B11)-CD28 (SA_variant 8) 1+1 (bispecific antibody, human IgG1, kappa, L234A L235A)
heavy 1: not shown
light 1: not shown
heavy 2: DIVMTQTPLSLSVTPGQPASISCKSSQSLETSTGTTYLNWYLQKPGQSPQLLIYRVSKRFSGVPDRFSGSGSGTDFTLKISRVEAEDVGVYYCLQLLEDPYTFGQGTKLEIKSSASTKGPSVFPLAPSSKSTSGGTAALGCLVKDYFPEPVTVSWNSGALTSGVHTFPAVLQSSGLYSLSSVVTVPSSSLGTQTYICNVNHKPSNTKVDKKVEPKSCDKTHTCPPCPAPEAAGGPSVFLFPPKPKDTLMISRTPEVTCVVVDVSHEDPEVKFNWYVDGVEVHNAKTKPREEQYNSTYRVVSVLTVLHQDWLNGKEYKCKVSNKALGAPIEKTISKAKGQPREPQVCTLPPSRDELTKNQVSLSCAVKGFYPSDIAVEWESNGQPENNYKTTPPVLDSDGSFFLVSKLTVDKSRWQQGNVFSCSVMHEALHNHYTQKSLSLSP
light 2: QVQLVQSGAEVKKPGASVKVSCKASGYTFTDYIMHWVRQAPGQGLEWMGYINPYNDGSKYTEKFQGRVTMTSDTSISTAYMELSRLRSDDTAVYYCARGTYYYGPQLFDYWGQGTTVTVSSASVAAPSVFIFPPSDEQLKSGTASVVCLLNNFYPREAKVQWKVDNALQSGNSQESVTEQDSKDSTYSLSSTLTLSKADYEKHKVYACEVTHQGLSSPVTKSFNRGEC
notes: control; huIgG1 PG-LALA CrossFab; charged modifications in CD28 Fab (knob), VH/VL exchange in CD19 Fab (hole); also called Molecule H; P1AF0175
binding result [1]: no binding (tested: 500 nM)

B2: CD28(SA)_variant_9 (antibody, human IgG1, kappa, L234A L235A)
heavy: not shown
light: not shown
chain: DKTHTCPPCPAPEAAGGPSVFLFPPKPKDTLMISRTPEVTCVVVDVSHEDPEVKFNWYVDGVEVHNAKTKPREEQYNSTYRVVSVLTVLHQDWLNGKEYKCKVSNKALGAPIEKTISKAKGQPREPQVCTLPPSRDELTKNQVSLSCAVKGFYPSDIAVEWESNGQPENNYKTTPPVLDSDGSFFLVSKLTVDKSRWQQGNVFSCSVMHEALHNRFTQKSLSLSP
notes: one-armed (monovalent) hu IgG1 PG-LALA, empty Fc hole; tested from supernatant; also called P1AE3065
binding result [2]: binds

B3: parental murine anti-human EpCAM antibody MOC31 (antibody, V domains shown)
VH: QVQLQQSGPELKKPGETVKISCKASGYTFTNYGMNWVKQAPGRGLKWMGWINTYTGESTYADDFKGRFAFSLETSASAAYLQINNLKNEDTATYFCARFAIKGDYWGQGTTLTVSS
VL: DIVMTQSAFSNPVTLGTSASISCRSTKSLLHSNGITYLYWYLQKPGQSPQLLIYQMSNLASGVPDRFSSSGSGTDFTLRISRVEAEDVGVYYCAQNLEIPRTFGGGTKLEIK
koff [3]: 0.00024 s⁻¹

— patent US20240368309A1 (Hoffmann-La Roche, published 2024)
